Data from the nanobody polyreactivity screen of Harvey et al. (2022).

Test: yeast display, Sf9 membrane polyspecificity reagent, FACS + sequencing; frameworks hold sequencing errors
Method in brief: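 Using colony PCR, genes from sorted yeast display clones were amplified, then sequenced on MiSeq at 2 × 250 and filtered by CDR length. The clones had been stained with 10% biotinylated, detergent-solubilized Sf9 membrane reagent for 1 hour at 4 °C and sorted by FACS into low and high (top ~1%) gates on anti-HA and streptavidin fluorescence. Polyreactivity labels come from the gate of origin.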

Row | Sequence | polyreactivity (PSR sort gate)
1 | QVQLVESGGGLVQAGGSLRFSCAASGFTFVYNAMGWYRQAPGKERELVARISVSGGSTYYADSVKGRFTISRDNAKNTVYLQMNSLKPEDTAVYYCAAELSAPQPDYQQKVDYYYWGQGTQVTVSS | low polyreactivity
2 | QVQLVESGGGLVQAGGSLRLSCAASGYIFGQYAMGWYRQAPGKERELVAAIRRSGGRTYYADSVKGRFTISRDNAKNTVYLQMNSLKPEDTAVYYCNKGPPQTSWRTTLFDYWGQGTQVTVSS | high polyreactivity
3 | QVQLVESGGGLVQAGGSLRLSCAASGFIYNTKGWYRQAPGKERELVAAISRSGGSTDYADSVKGRFTISRDNAKNTVYLQMTSLKPEDTAVYYCAARRPYRDGYDYWGQGTQVTVSS | high polyreactivity
4 | QVQLVESVGGLVQAGGSLRLSCAASGFTFYKNAMGWYRQATGKERELVAPITKSGGRTYYADSVKGRFTISRDYAKNTVYLQMNCLKPEDNAVYYCAADISPFGRQPCVIRYSWGQGTQVTVSS | high polyreactivity
5 | QVQLVESGGGLVQAGGSLRLSCAASGSIFGIYAMGWYRQAPGKERELVAAISWSGGSTYYADSVKGRFTISRDNAKNTVYLQMNSLKPEDTAVYYCNADVQLFGWWYGMDYWGQGTQVTVSS | high polyreactivity
6 | QDELVESGGGLVQAGGSLRLSCAASGRIFPFYAMGWNRQAPGKERDFVAAITYSGGNTNYADSVKGRFTISRDNAKNTVYLQMNSLKPEDTAVYYCAAVLGYGDYYQEDYWGQGTQVTVSS | low polyreactivity
7 | QVQLVESGGGLVQAGGSLRLSCASSGRTYTLNAMGWYRQAPGKERELVAAIRRGGSTYYADSVKGRFTISRDNAKNTVYLQMNSLKPEDTAVYYCAARGTGYHGYGYWGQGTQVTVSS | high polyreactivity
8 | QVQLVESGAGLVQAGGSLRLRCAASRRSFRNYAMGWYRPAPGKEREVVAAIRSGVRTYYADSVKGRFTISRDNAKNTVYLQMNSLKPEDTAVYYCAVATGLLYKSHGYWGQGTQVTVSS | low polyreactivity
9 | QVQLVESGGGLVQAGGSLRLSCAASGLILYYYAMGWYRQAPGKEREFVAAISGRGGSTYYADSVKGRFTISRDNAKNTVYLQMNSLKPEDTAVYYCAARVWYKYDHWGQGTQVTVSS | high polyreactivity
10 | QVQLVESGGGLVQAGGSLRLSCAASGSTSILYAMGWYRQAPGKERELVAAISRSGGSTYYADSVKGRFTISRDNAKNTVYLQMNSLKPEDTAVYYCAAQWVYQYGFNYWGQGTQVTVSS | high polyreactivity
11 | QFQLVESGGGLVQAGGSLRLSCAASGRTFGRYAMGRDRPAPGKERELVAAINSGGSTYYADSVKGRFTISRDNAKNTVYLQMMSLKPEDTAVYYCDTQWTWKLGYWGQGTQVTVSS | high polyreactivity
12 | QVQLVESGGGLVQAGGSLRLSCAASGNTVDGNAMGWYRPAPGKERELVAAINYSGASTYYADSVKGRFTISRDNAKNTVYLQINSLKPEDTAVYYCAADDYTASDRYWHDYWGQGTQVTVSS | low polyreactivity
13 | QVQLVESGGGLVQARVSLRLSCAASGSIFNGYAMRWYRQAPGKESEFVAAISASGGGTYYADSVKGRFTISRDNAKNTVYLQMNSLKPEDTAVYYCNARYHPYYWGYRYDYWGQGTQVTVSS | low polyreactivity
14 | QVQLVESGGGLVQAGGSLRLSCAASGRTFAIYAMGWYRQAPGKERELVAAIRKRGSITYYADSVKGRFTISRDNAKNTVYLQMNSLKPEDTAVYYCAVDYWGQGTQVTVSS | high polyreactivity
15 | QVQLVESGGGLVQAGGSLRLSCAASGSTFQYYAMGWYSQAPGKERELVAAISYGGSRTYYADSVKGRFTISRDNAKNTVYLQMNSLKPEDTAVYYCAKEKYRALAPYYYWGQGTQVTVSS | high polyreactivity
16 | QVHLVESGGGLVQAGGSLRLSCAASGYTSKTYAMGWYRQAPGKEMELVAAINWGSGSTYYADSVKGRFTISRDNAKNTVYLQMNSLKPEDTAVYYCAAEGYYNWYVGYGYWGQGTQVTVSS | high polyreactivity
17 | QVQLVESGGGLVQAGGSLRLSCAASGSIFAVYTMGWYRQAPGKEREFVAAITKSGGRTYYADSVKGRFTISRDNAKNTVYLQMNSLNPEDTAFYYCARRRTIPYTLVDYDSWGQGTQVTVSS | low polyreactivity
18 | QVQLVESGGGLLQAGGSLRLSCAASGRTFYKNAMGWYRHAPRKERELVAAITSGGSTNYADSVKGRFTISRDNAKNSVYLQMNSLKSEDTAVSACAAQLFPYYRSRYSYINNYDYSGQGTQVTVSS | high polyreactivity
19 | QVQLVESGGGLVQAGGSLRLSCAASGRTFSYYAMGWYRQAPGKEREFVAAISSTGTSTYYADSVKGRFTISRDNAKNTFSLQMNRLKPEDTAVYYCNARVATYRLHSKFYYWGQGTQVTVSS | high polyreactivity
20 | QVQLVESGGGLVQAGGSLRLSCAASGSIFSGNAMGWYRQAPGKERELVAAISRSGTSTYYADSVKGRFTISRDNAKNTVYFQMNSLKPEDTAVYYCNARSYYTLRSDFYYWGQGTQVTVSS | high polyreactivity
21 | QVQLVESGGGLVQAGGSLRLSCAASGSTFGWYTMGWYRQAPGKERELVAAITSRGTRTSYADSVKGRFTISRDYAKNTVYLQMNSLKPEDTAVYYCAARVFRGLGEYYWGQGTQVTVSS | high polyreactivity
22 | QVQLVESGGGLVQAGGRLRLTCAASGRIFVIYAMRWYRQAPGKERELVAGITRGDRTYADSVKARFTISRDNAKNTVYLQMNSLKPEDTAVYYCNADTGYRFDYWGQGTQVTVSS | high polyreactivity

Row | Sequence | polyreactivity (PSR sort gate)
23 | QVQLVESGGGLVQAGGSLRLSCAASGSTFGWYAMGWYRQAPGKEREFVAAISWSGTSTYYADSVKGRFTISRDNAKNTVYLQMNSLKPEDTAVYYCNARSKRANRSLGLGYWGQGTQVTVSS | low polyreactivity
24 | QVQLVESGGGLVQAGGSLRLSCAASGSTFVDYAMGWDRQAPGKERELVAGINGSGGSTYYADSVKGRFTISRDNAKNTVYLQMNSLKPEDTAVYYCAKDGSNRLALPAWDYNYWGQGTQVTVSS | low polyreactivity
25 | QVQLVESGGGLVQAGGSLRLSCAASGGIFIRYAMGWYRQAPGKEREFVAAIRWRGTNTYYADSVKGRFTISRDNAKNTVYLQMNSLKPEDTAVYYCAARPYYITRYKGMDYWGQGTQVTVSS | high polyreactivity
26 | QVQLVESGGGLVQAGGSLRLSCAASGFTFAQYAMGWYRQAPGKERELVATISRRGGSTYYADSVKGRFTISRDNAKNTVYLQMNSLKPEDTAVYYCTAAKYLYRHGFLSAGDMYYWGQGTQVTVSS | high polyreactivity
27 | QVQLVESGGGLVQARGSLRLSCAASGLTFRIYAMGWYRQAPGKERELVAAITRGGSTYADSVKGRFTISRDNAKNTVYLQMNSLKPEDTAVYYCAARVRSTSQVSASPVWYYYWGLGTQVTVSS | high polyreactivity
28 | QVQLVESGGGLVQAGGSLRLSCAASGITFDNNAMGWYRQAPGKEREFVADIDGSGGSTYYADSVKGRFTISRDNAKNTVYLLMNCLKPEDTAVYYCAVVVYYYTYHYWGQGTQVTVSS | low polyreactivity
29 | QVQLVESGGGLVQAGGSLRLSCAASGRIFYVYAMGWYRQAPGKERELVAAISRGGSTNYADSVKGRFTISRDNAKNTVYLQMNSLKPEDTAVYYCAASSLPHYSYRHSYLYEYWGQGTQVTVSS | low polyreactivity
30 | QVQLVESGVGLVQAGGSLRLSCAASGFTFSYNALGWYRQAPGKERELVAAISSSGGSTYYADSVKGRFTISRDNAKNTVYLQMNILKPEDTAVYYCAVPYLTLYGRTYDYWGHGTQVTVSS | high polyreactivity
31 | QVQLVESGGGLVKAGGSLRLSCAASGFTFRRNAMGWYRQAPGKERELVAAITYNGGTTYYADSVKGRFTISRDNAKNTVYLQMNSLKPEDTAVDYCNAPYGRQGYDYWGQGTQVTVSS | low polyreactivity
32 | QVQLVESGGGLVQAGGSLRLSCAASGRIFGGYAMGWYRPAPGKERELVAAISGGGSTNYADSVKGRFTISRDNAKNTVYLQMNSLKPEDTAVYYCAAQYWSRRFYWYGYWGQGTQVTVSS | high polyreactivity
33 | QVQLVESGGGLVQAGGSLRLSCAASGRIFRLYAMGWYRQAPGKERELVATITSGGTYYADSVKGRFTISRDNAKNTVYLQMNSLKPEDTAVYYCAADVYPGYVGSEEYDYWGQGTQETVSS | low polyreactivity
34 | QVQLVESGGGLVQARGSLRLSCAASGRIFVINAMGWYRQAPGKERELVAAISQSGGSTYYADSVKGRFTISRDNAKNTVYLQMNSLKPEDTAVYYCNALSNVPYDYWGQGTLVTVSS | low polyreactivity
35 | QVQLVESGGGLVQAGGSLRLSCAASGGIFRGYVMGWYRQAPGKERELVAAISYSGGNTYYADSVKGRFTISRDNAKNTVYLQMNSLKPEDTAVYYCDTVRSDFHSDDYWGQGTQVTVSS | low polyreactivity
36 | QVQLVESGGGLVQAGGSLRLSCAPSGRILWFYAMGWYRQAPGKERELVAAISSSSGRTYYADSVKGRFTISRDNAKNTVYLQMYILKPEDSAVYYCAATHAVARPLEYDYWGQGTHVTVSS | low polyreactivity
37 | QVQLVESGGGLVQAGGSLRLSCAASGSIFTKYAMGWYRQAPGKEREFVAAITLSGGSTYYADSVKGRFTIGRDNAKNTVYLQMNSLKPEDTAVYYCNAAYTYVTAWYYYWGQGTQVTVSS | high polyreactivity
38 | QVHLVESGGGLVQAGGSLRLSCAASGRIFDGYDMGWYRQAPGKERELVAAITSVGSTNYADSVKGRFTISRDNAKNTVYLQMNSLKPEDTAVYYCAAVLYVFDDEYGYLEYFSQYDYWGQGSQVTVSS | low polyreactivity
39 | QVQLEESGGGLVQAGGSLRLSCAASGYTFESYPMGWYRQAPGKEREFVAVISSSDTSTSYADSVKGRFTISRDNAKNTVYLQMNSLNPEDTAVYYCAAYSSPYYITYYWYNYDYWGQGTQVTVSS | low polyreactivity
40 | QVQLVESGGGLVQAGGSLRLSCAASGSIGYMGWYRQAPGKERELVAFITSSGGGTYYADSVKGRFTISRDNAKNTVYLQMNSLKPEDTAVYYCATKSSAGYDYWGQGTQVTVSS | low polyreactivity
41 | QVQLVESGGGLVQAGGSLRLSCAASGRIFGGYAMGWYRQAPGKERELVAVITDGGSTNYADSVKRRFTISRDNAKNTVYLQMNSLKPEDTAVYYCAADSDGDEPPYDYWGQGTQVTVSS | low polyreactivity
42 | QVQLVESGGGLVQAGGSLRLSCAASGSTLQYYDMGWYRQAPGKERELVAAITWSTGTTYYADSVKGRFTISRDNAKNTVYLQMNSLKPEDTAVYYCAVDSYYRATYTNRYDYWGQGTQVTVSS | low polyreactivity
43 | QVQLVESGGGLVQAGGSLRLSCAASGLTFRKYAMGWYRQAPGKERELVAAITRGGSTNYADSVKGRFTISRDNAKNTVYLQMNSLKPEDTAVYYCNTRPYRPFDYWGQGTQVTVSS | high polyreactivity
